How the values were obtained:
Experiment in all cases: spectrophotometric PMM assay (as in earlier work)
Assay type in all cases: biochemical, Triticum aestivum
Details in all cases: average of three experiments; temperature and pH not given
[1] = substrate: O=P(O)(O)O[C@H]1O[C@H](CO)[C@@H](O)[C@H](O)[C@@H]1O
Source text: spectrophotometric PMM assay (as in earlier work) on TaPMM-D2 | The average Km (mM, mannose-1-phosphate) values calculated for recombinant A1, D1 and D2 proteins

[2] = substrate: O=P(O)(O)O[C@H]1O[C@H](CO)[C@@H](O)[C@H](O)[C@@H]1O; remark: listed apart in the source
Source text: spectrophotometric PMM assay (as in earlier work) on TaPMM-D1 | The average Km (mM, mannose-1-phosphate) values calculated for recombinant A1, D1 and D2 proteins

[3] = substrate: O=P(O)(O)O[C@H]1O[C@H](CO)[C@@H](O)[C@H](O)[C@@H]1O; remark: listed apart in the source
Source text: spectrophotometric PMM assay (as in earlier work) on TaPMM-A1 | The average Km (mM, mannose-1-phosphate) values calculated for recombinant A1, D1 and D2 proteins

B1: TaPMM-D2 (Triticum aestivum) (protein)
chain: MVASAARKNAGVLALFDVDGTLTAPRKEVTPEMLEFMKRLRENVTVGVVGGSDLVKISEQLGKSVITDYDYVFSENGLVAHKDGKLIGTQSLKTYLGDDQLKEFINFTLHYIADLDIPIKRGTFIEFRSGMINVSPIGRNCSQEERDDFEKYDKVHNVRPKMVSMLREKFAHLNLTFSIGGQISFDVFPHGWDKTYCLRYLDEFKEIHFFGDKTYKGGNDHEIFESDRTVGHTVTSPDDTVQQCRSIFLSK
Km [1]: 480 ± 20 µM

B2: TaPMM-D1 (Triticum aestivum) (protein)
chain: MAAAAAARKTAGVLALFDVDGTLTAPRKEVTPEMLEFMKRLRENVTVGVVGGSDLVKISEQLGKSVITDYDYVFSENGLVAHKDGKLIGTQSLKTYLGDDQLKEFINFTLHYIADLDIPIKRGTFIEFRSGMINVSPIGRNCSQEERDDFEKYDKVHNVRPKMVSVLREKFAHLNLTFSIGGQISFDVFPQGWDKTYCLRYLEEFKEIHFFGDKTYKGGNDHEIFESERTVGHTVTSPNDTVQQCKSIFLSE
Km [2]: 400 ± 20 µM

B3: TaPMM-A1 (Triticum aestivum) (protein)
chain: MAAARKDAGVLALFDVDGTLTAPRKEVTPEMLEFMKRLRENVTVGVVGGSDLVKISEQLGKSVITDYDYVFSENGLVAHKDGKLIGTQSLKTYLGDDQLKEFINFTLHYIADLDIPIKRGTFIEFRSGMINVSPIGRNCSQEERDDFEKYDKVHNVRPKMVSVLREKFAHLNLTFSIGGQISFDVFPQGWDKTYCLRYLEEFKEIHFFGDKTYKGGNDHEIFESDRTVGHTVTSPNDTVQQCKSIFLSE
Km [3]: 460 ± 20 µM

Source: paper PMC3017832, “Molecular analysis of phosphomannomutase (PMM) genes reveals a unique PMM duplication event in diverse Triticeae species and the main PMM isozymes in bread wheat tissues” (BMC Plant Biology, 2010)
